Source: patent publication US20090299035A1

Tests used:
[1] = target: Human IgG (Sigma-Aldrich Corporation) (human); test: Biacore SPR; protein on NTA chip, human IgG injected
[2] = target: Human IgG (Sigma-Aldrich Corporation) (human); test: Biacore SPR; protein on NTA chip, human IgG injected; reference repeated from Table 3
[3] = target: Human IgG (Sigma-Aldrich Corporation) (human); test: human IgG captured on the protein-immobilized Amino-Cellulofine carrier, released with 0.1 M acetic acid, A280
[4] = target: Human IgG (Sigma-Aldrich Corporation) (human); test: Biacore SPR; protein on NTA chip, human IgG injected; reference repeated from Table 2

Binder	Kd [1] [nM]	koff [1] [s⁻¹]	kon [1] [M⁻¹ s⁻¹]	Amount of bound human IgG (mg/ml carrier) [3]	further results
Immobilization carrier SEQ ID NO: 6 (←SEQ ID NO: 3) (designed binder, carboxy terminus bound to a primary amino group on Amino-Cellulofine via an amide bond) ATIRANLIYADGRTQTAEFRGTFEEATAEAYRYADLLARENGRYTVDVADRGYTLNIRFAGGGGG	–	–	–	3	–
Protein expressed from pLL3T (SEQ ID NO: 26 repeated three times, n = 3) (designed binder) ATIRANLIYADGRTQTAEFRGTFEEATAEAYRYADLLARENGRYTVDVADRGYTLNIRFAPGATIRANLIYADGRTQTAEFRGTFEEATAEAYRYADLLARENGRYTVDVADRGYTLNIRFAPGATIRANLIYADGRTQTAEFRGTFEEATAEAYRYADLLARENGRYTVDVADRGYTLNIRFAPGGGGGCADDDDDDHHHHHH	0.788	0.000237	301000	–	–
pPG (SEQ ID NO: 2) (designed binder) AYRLILNGRTLRGETTTEAVDAATAERVFRQYANDNGVDGEWTYDDATRTFTVTERPEVIDASELTPAVTGGGGCADDDDDDHHHHHH	0.384	0.000154	401000	–	Kd [4]: 0.384 nM; koff [4]: 0.000154 s⁻¹; kon [4]: 401000 M⁻¹ s⁻¹
Immobilization carrier SEQ ID NO: 5 (←SEQ ID NO: 2) (designed binder, carboxy terminus bound to a primary amino group on Amino-Cellulofine via an amide bond) AYRLILNGRTLRGETTTEAVDAATAERVFRQYANDNGVDGEWTYDDATRTFTVTERPEVIDASELTPAVTGGGG	–	–	–	10	–

The next lines start with results.

Kd [1] [nM]	koff [1] [s⁻¹]	kon [1] [M⁻¹ s⁻¹]	Amount of bound human IgG (mg/ml carrier) [3]	Binder	further results
0.068	7.63e-05	1.12e+06	–	Protein expressed from pGG3T (SEQ ID NO: 25 repeated three times, n = 3) (designed binder) AYRLILNGRTLRGETTTEAVDAATAERVFRQYANDNGVDGEWTYDDATRTFTVTERPEVIDASELTPAVTPGAYRLILNGRTLRGETTTEAVDAATAERVFRQYANDNGVDGEWTYDDATRTFTVTERPEVIDASELTPAVTPGAYRLILNGRTLRGETTTEAVDAATAERVFRQYANDNGVDGEWTYDDATRTFTVTERPEVIDASELTPAVTPGGGGGCADDDDDDHHHHHH	–
2.06	0.000312	151000	–	pPL (SEQ ID NO: 3) (designed binder) ATIRANLIYADGRTQTAEFRGTFEEATAEAYRYADLLARENGRYTVDVADRGYTLNIRFAGGGGGCADDDDDDHHHHHH	Kd [2]: 2.06 nM; koff [2]: 0.000312 s⁻¹; kon [2]: 151000 M⁻¹ s⁻¹
